B1: mouse tissue transglutaminase 2 C-terminal D3D4 domains (mTG2 D3D4) [modified: biotin on the AVI-tag; biotin on the AVI-tag] [mouse] / mouse full-length GPR56 (GPR56 FL), wild type, on HEK293T cells [mouse] (parent complex)
chain 1: TGVAMRIRVGDSMSMGNDFDVFAHIGNDTSETRECRLLLCARTVSYNGVLGPECGTEDINLTLDPYSENSIPLRILYEKYSGCLTESNLIKVRGLLIEPAANSYLLAERDLYLENPEIKIRVLGEPKQNRKLVAEVSLKNPLSDPLYDCIFTVEGAGLTKEQKSVEVSDPVPAGDLVKARVDLFPTDIGLHKLVVNFQCDKLKSVKGYRNVIIGPA
chain 2: GSPREDFRFCGQRNQTQQSTLHYDQSSEPHIFVWNTEETLTIRAPFLAAPDIPRFFPEPRGLYHFCLYWSRHTGRLHLRYGKHDYLLSSQASRLLCFQKQEQSLKQGAPLIATSVSSWQIPQNTSLPGAPSFIFSFHNAPHKVSHNASVDMCDLKKELQQLSRYLQHPQKAAKRPTAAFISQQLQSLESKLTSVSFLGDTLSFEEDRVNATVWKLPPTAGLEDLHIHSQKEEEQSEVQAYSLLLPRAVFQQTRGRRRDDAKRLLVVDFSSQALFQDKNSSQVLGEKVLGIVVQNTKVTNLSDPVVLTFQHQPQPKNVTLQCVFWVEDPASSSTGSWSSAGCETVSRDTQTSCLCNHLTYFAVLMVSSTEVEATHKHYLTLLSYVGCVISALACVFTIAAYLCSRRKSRDYTIKVHMNLLSAVFLLDVSFLLSEPVALTGSEAACRTSAMFLHFSLLACLSWMGLEGYNLYRLVVEVFGTYVPGYLLKLSIVGWGFPVFLVTLVALVDVNNYGPIILAVRRTPERVTYPSMCWIRDSLVSYVTNLGLFSLVFLFNLAMLATMVVQILRLRPHSQNWPHVLTLLGLSLVLGLPWALVFFSFASGTFQLVILYLFSIITSFQGFLIFLWYWSMRFQAQGGPSPLKNNSDSAKLPISSGSTSSSRI

Variants of: B1
Assay: flow cytometry on cells; 5 nM TG2 D3D4 (tetramerized); GPR56 FL constructs expressed on HEK293T cells; n = 3; parent: 1; read off a plot

Variant	ratio to parent
chain 2 R79D	~0.27
chain 2 Q12A	~0.69
chain 2 A112R, chain 2 S114R	~5.3
chain 2 R8E	~4.7
